# Laboratory results: article PMC5175136, “Structural basis of the substrate preference towards CMP for a thymidylate synthase MilA involved in mildiomycin biosynthesis” (Scientific Reports, 2016)
# B1: MilA, CMP hydroxymethylase from Streptomyces rimofaciens ZJU5119 (wild type, C-terminally His-tagged) (enzyme, UniProt B4Y380 1-334, looked up)
# chain: METHTFGTFQDAYLSQLRDIYHSPEFRNAPRGQASRERIGAGFRLLDPVQRHISVPARRANVVFNFAEALWYLSGSDRLDFIQYYAPGIAAYSADGRTLRGTAYGPRIFRHPAGGVNQWENVVKTLTDDPDSKRAVIQIFDPRELAVADNIDVACTLALQFLIRDGLLCGIGYMRANDAFRGAVSDVFSFTFLQEFTARYLGLGIGTYHHVVGSVHIYDSDARWAERVLDAATPDGGPRPGFPAMPDGDNWPHVRRVLEWEERLRTNAARLSADALDALDLPAYWKHVVALFEAHRQVRHEDTPDRALLAALPEVYRQSLAVKWPGHFGSPAGS
# notes: MilA, CMP hydroxymethylase of the mildiomycin biosynthetic gene cluster, Streptomyces rimofaciens ZJU5119; full-length, cloned into pET28a; They are disordered in the crystal; also called WT MilA; MilA-WT; source: E. coli BL21(DE3), purified (Ni-NTA, Superdex 200 gel filtration); not shown: His6, C-terminal, kept
# Experiments:
# [1] = molecular target: T1, MilA (Streptomyces rimofaciens, UniProt B4Y380); assay: X-ray crystal structure, […] Å; type: binding; conditions: crystals grown with hmCMP, pH 6.5, 14 °C; active site
# T1 construct: full-length, C-terminal 6xHis tag (LEHHHHHH) kept, pET28a, expressed in E. coli BL21(DE3); homodimer, active site from both subunits
# T1 sequence (B4Y380 1-334): B1 chain
# [2] = molecular target: T2, MilA (Streptomyces rimofaciens, UniProt B4Y380, K133R/A176S); assay: HPLC/LC-MS of CMP and dCMP competition reaction; type: biochemical; conditions: 1 mM CMP and dCMP together, 2 mM tetrahydrofolate, 15 mM paraformaldehyde, pH 7.5, 37 °C
# T2 construct: full-length, C-terminal 6xHis tag (LEHHHHHH) kept, pET28a, expressed in E. coli BL21(DE3); homodimer, active site from both subunits
# [3] = molecular target: T3, MilA (Streptomyces rimofaciens, UniProt B4Y380, A176S); assay: HPLC/LC-MS of CMP and dCMP competition reaction; type: biochemical; conditions: 1 mM CMP and dCMP together, 2 mM tetrahydrofolate, 15 mM paraformaldehyde, pH 7.5, 37 °C
# T3 construct: full-length, C-terminal 6xHis tag (LEHHHHHH) kept, pET28a, expressed in E. coli BL21(DE3); homodimer, active site from both subunits
# [4] = substrate: Nc1ccn([C@@H]2O[C@H](COP(=O)(O)O)[C@@H](O)[C@H]2O)c(=O)n1; assay: HPLC of hmCMP formation, Michaelis-Menten fit; type: biochemical, Streptomyces rimofaciens; conditions: CH2THF co-substrate saturating (from 2 mM tetrahydrofolate), 50 mM Tris-HCl pH 7.5, 37 °C
# Source text: HPLC of hmCMP formation, Michaelis-Menten fit on MilA
# [5] = substrate: Nc1ccn([C@H]2C[C@H](O)[C@@H](COP(=O)(O)O)O2)c(=O)n1; assay: HPLC of hmdCMP formation, Michaelis-Menten fit; type: biochemical, Streptomyces rimofaciens; conditions: CH2THF co-substrate saturating (from 2 mM tetrahydrofolate), 50 mM Tris-HCl pH 7.5, 37 °C
# Source text: HPLC of […] formation, Michaelis-Menten fit on MilA
# [6] = molecular target: the molecule itself; assay: crystal structure; hanging-drop vapor diffusion at 14 °C; apo MilA (PEG 3350, lithium sulfate, Tris-HCl pH 8.5) and complexes with CMP, dCMP or hmCMP (sodium cacodylate pH 6.5, sodium acetate); space group P3(2)21, two molecules in the asymmetric unit related by a non-crystallographic twofold rotation
# [7] = crystal structure of complex at 1.65 Å
# [8] = crystal structure of complex at 2.10 Å
# T3 sequence (B4Y380 entry or part of it A176S): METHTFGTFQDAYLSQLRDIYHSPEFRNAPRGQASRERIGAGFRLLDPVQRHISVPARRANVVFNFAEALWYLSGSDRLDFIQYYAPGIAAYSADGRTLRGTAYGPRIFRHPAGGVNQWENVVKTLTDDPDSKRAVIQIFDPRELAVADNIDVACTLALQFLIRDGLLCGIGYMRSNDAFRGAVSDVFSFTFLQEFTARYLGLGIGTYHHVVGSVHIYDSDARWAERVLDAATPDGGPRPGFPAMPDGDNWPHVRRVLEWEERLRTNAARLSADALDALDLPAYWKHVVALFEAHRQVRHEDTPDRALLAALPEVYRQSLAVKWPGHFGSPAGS
# T2 sequence (B4Y380 entry or part of it K133R/A176S): as the sequence (B4Y380 entry or part of it A176S) above, with K133R counted along it
molecule,measurement,setting,value
Nc1nc(=O)n([C@@H]2O[C@H](COP(=O)(O)O)[C@@H](O)[C@H]2O)cc1CO [hmCMP],"X-ray crystal structure, 1.80 Å",[1],MilA‒hmCMP complexes have been deposited in the Protein Data Bank
Nc1ccn([C@H]2C[C@H](O)[C@@H](COP(=O)(O)O)O2)c(=O)n1 [dCMP],HPLC/LC-MS of CMP and dCMP competition reaction,[2],"double mutant MilA A176S/K133R, but its efficiency to dCMP is slightly affected"
same,HPLC/LC-MS of CMP and dCMP competition reaction,[3],significantly enhanced its catalytic efficiency toward dCMP
Nc1ccn([C@@H]2O[C@H](COP(=O)(O)O)[C@@H](O)[C@H]2O)c(=O)n1 [CMP],HPLC/LC-MS of CMP and dCMP competition reaction,[3],MilA-A176S could still catalyze the hydroxymethylation reaction of CMP
B1,Km,[4],0.0719 (0.0076) mM
same,kcat,[4]; [7],0.047 s⁻¹
same,kcat/Km,[4]; [7],653 M⁻¹ s⁻¹
same,Km,[5],0.245 (0.0589) mM
same,kcat,[5]; [8],0.032 s⁻¹
same,kcat/Km,[5]; [8],131 M⁻¹ s⁻¹
same,stoichiometry N,[6],2
